Laboratory results reported in US20240010741A1 (MAB DISCOVERY, published 2024).
Residue numbers refer to the chain shown, from its start. Numbers in names are those of the source. Each block holds one binder with its values, some of them ahead of it.

Tests used:
cell-expressed CD40 [1] = target: T1, cell-expressed CD40 (UniProt P25942 21-277, limits assumed); test: cell binding on HEK-Blue-CD40L cells, Alexa-Fluor-488 anti-human IgG, high content imaging
T1 construct: whole, on cells; also called CD40 on HEK-Blue-CD40L cells; cell surface CD40
T1 sequence (P25942 21-277 limits assumed): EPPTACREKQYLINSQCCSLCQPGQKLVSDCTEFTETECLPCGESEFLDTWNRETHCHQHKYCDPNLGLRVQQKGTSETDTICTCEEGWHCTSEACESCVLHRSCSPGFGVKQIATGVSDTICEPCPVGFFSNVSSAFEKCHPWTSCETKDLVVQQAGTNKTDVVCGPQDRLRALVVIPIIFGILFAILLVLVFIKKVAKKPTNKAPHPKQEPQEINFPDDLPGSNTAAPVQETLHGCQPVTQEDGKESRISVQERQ
Method: Antibodies were added to final concentrations ranging from 1.25 μg/ml to 0.01 ng/ml in 5 μl medium. After 24h cells were washed three times with 25 μl wash buffer (PBS, 0.05% Tween) before Alexa-Fluor-488-conjugated goat anti-human-IgG (Jackson Laboratories) was added at a concentration of 0.8 μg/ml in 20 μl medium. Four hours later, 5 μl Hoechst dye in medium was added to a final concentration of 51.1 µg/ml. Fluorescent cell binding signals were measured using a CellInsight automated high content imager (Thermo Fisher Scientific). Fitting curves and EC50 calculation were obtained by using Excel (Microsoft) and XLfit (IDBS).

recombinant CD40 protein = target: T2, recombinant CD40 protein (UniProt P25942 21-193, limits assumed); test: CD40L competition ELISA: antibody (5 µg/ml) preincubated with recombinant CD40 (1.7 µg/ml), complex added to coated CD40L, detected with anti-human F(ab)2-peroxidase; a low signal means competition with CD40L
T2 construct: Construct not described; also called CD40 recombinant protein
T2 sequence (P25942 21-193 limits assumed): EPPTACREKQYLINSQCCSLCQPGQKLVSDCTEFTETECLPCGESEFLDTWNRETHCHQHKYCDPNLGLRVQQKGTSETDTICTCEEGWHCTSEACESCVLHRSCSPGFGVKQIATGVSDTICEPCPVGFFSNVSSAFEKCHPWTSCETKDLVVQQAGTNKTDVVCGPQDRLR
Method: Competition of humanized anti-CD40 IgG1-LALA monoclonal antibodies with CD40L binding to CD40 was tested using an ELISA assay. CD40L was coated to the surface of a 384-well Nunc™ MaxiSorp™ plate in a volume of 25 μl PBS and at a concentration of 1 μg/ml for one hour at room temperature. Antibodies were pre-incubated at a concentration of 5 μg/ml with recombinant CD40 protein at a concentration of 1.7 μg/ml in a total volume of 40 μl for 1.5 hours at room temperature in ELISA buffer (PBS, 0.5% BSA, 0.05% Tween). The Nunc™ MaxiSorp™ plate was washed three times with wash buffer (PBS, 0.1% Tween) and blocked for one hour at room temperature with PBS, 2% BSA, 0.05% Tween. After three washes in wash buffer, 25 μl of the antibody-CD40 complex were added to the Nunc™ MaxiSorp™ plate wells and incubated for one hour at room temperature. After 3 washes in wash buffer, wells were incubated with 25 μl of a 1:2000 dilution of anti-human peroxidase-linked, species specific F(ab) 2 Fragment from goat (AbD Serotec) in ELISA buffer for one hour at room temperature. Wells were washed six times with wash buffer and 30 μl/well TMB substrate solution (Invitrogen) were added. After 10 minutes at room temperature, 30 μl Stop solution (1M HCl) was added per well and absorbance at 450 and 620 nm wavelength was measured using a Tecan M1000 microplate reader.

[2] = target: T3, Recombinant cyno-CD40 protein (Acro Biosystems) (cynomolgus monkey (Macaca fascicularis), UniProt G7PG38 21-193); test: ELISA on coated recombinant cynomolgus monkey CD40
T3 construct: also called cynomolgus monkey-CD40 protein; recombinant cynomolgus monkey CD40 recombinant protein
Method: Binding of humanized anti-CD40 IgG1-LALA monoclonal antibodies to cynomolgus monkey-CD40 protein was tested in a biochemical ELISA. Recombinant cyno-CD40 protein (Acro Biosystems) was incubated in a 384-well Nunc™ MaxiSorp™ plate at a concentration of 0.5 μg/ml in PBS for one hour at room temperature. After washing three times with wash buffer (PBS, 0.1% Tween), plates were blocked with PBS, 2% BSA, 0.05% Tween for one hour at room temperature. Plates were washed again three time with wash buffer and antibodies at concentrations ranging from 500 to 0.03 ng/ml in PBS, 0.5% BSA, 0.05% Tween were incubated for one hour at room temperature. After 3 washes in wash buffer, wells were incubated with 12.5 μl of a 1:3000 dilution of anti-human peroxidase-linked, species specific F(ab) 2 Fragment from goat (AbD Serotec) in ELISA buffer for one hour at room temperature. Wells were washed six times with wash buffer and 15 μl/well TMB substrate solution (Invitrogen) were added. After 10 minutes at room temperature 15 μl Stop solution (1M HCl) were added per well and absorbance at 450 and 620 nm wavelength was measured using a Tecan M1000 microplate reader. Fitting curves and EC50 calculation were obtained by using Excel (Microsoft) and XLfit (IDBS).

[3] = target: T4, soluble cynomolgus monkey CD40 monomeric protein (Acro Biosystems) (cynomolgus monkey, UniProt G7PG38 21-193); test: SPR (Biacore T200), antibody captured via anti-human Fc on CM5 chip, soluble cynomolgus CD40 as analyte, Langmuir 1:1 model
T4 construct: May be the same reagent as m11; also called cynomolgus monkey CD40 protein
Method: (§1) a. The biochemical affinities of the antibodies of the invention was determined by surface plasmon resonance measurements. Antibodies were reversibly immobilized to a CM5 sensor chip surface via an anti-human Fc antibody. The kinetics of the interaction of immobilized antibodies with soluble human or cynomolgus monkey CD40 monomeric protein (Acro Biosystems) were analysed on a Biacore T200 SPR instrument. Kinetic data were determined using a Langmuir 1:1 binding model.
(§2) Biochemical affinities were measured by surface plasmon resonance on a Biacore T200 SPR instrument. Kinetic data were determined using a Langmuir 1:1 binding model.

[4] = target: soluble human CD40 monomeric protein (Acro Biosystems) (human, UniProt P25942 21-193); test: SPR Biacore T200, antibody captured via anti-human Fc, soluble CD40 as analyte, 1:1 model
Chain of soluble human CD40 monomeric protein (Acro Biosystems) (P25942 21-193 limits assumed): as above
Method: as §1, §2

cell-expressed CD40 [5] = target: T1, cell-expressed CD40; test: flow cytometry on HEK-Blue-CD40L cells preincubated with isotype control IgG1-LALA, CD40L-mouse IgG2a Fc titrated, DyLight 405 anti-mouse IgG [Detection of CD40L binding]
Method: (§3) a. Binding of anti CD40 antibodies of the invention to HEK-Blue-CD40L™ cells in the presence of CD40L was tested to verify whether the antibodies bind to the CD40L binding site of cell surface CD40. […] CD40L containing a mouse-IgG2a Fc-tag (AB Biosciences) was added at concentration ranging from 10000 to 9.8 ng/ml and cells were incubated for 60 minutes at 4° C. Anti-CD40 antibodies and CD40L bound to cell-expressed CD40 were detected using secondary DyLight 405-conjugated anti-mouse IgG and Alexa Fluor 488-conjugated anti-human IgG (Jackson Laboratories) and analyzed using FACSVerse instrument (BD).

cell-expressed CD40 [6] = target: T1, cell-expressed CD40; test: flow cytometry on HEK-Blue-CD40L cells preincubated with CP870,893 IgG1-LALA at EC90, CD40L-mouse IgG2a Fc titrated, DyLight 405 anti-mouse IgG [Detection of CD40L binding]
Method: as §3

B4: MAB-16-0262 (antibody, V domains shown)
VH: EVQLEESGGGLVQPGGSLRLSCAASGFDFSTNAMCWVRQAPGKGLEWVACIAAGSSIITYYASWAKGRFTISKDTSKTTLYLQMNSLRAEDTAVYFCARGLSRFALWGQGTLVTVSS
VL: DIVMTQSPSSLSASVGDRVTITCQASQSISSYLSWYQQKPGQAPKLLIYLTSTLASGVPSRFSGSGSGTDFTLTISSLQPEDFATYYCQGYYSSSSYVSNGFGQGTKVVIK
notes: Humanized IgG1-LALA (L234A, L235A in the human IgG1 Fc, EU numbering)
- EC50 (cell-expressed CD40 [1]): 6.3 ng/mL
- Kd [3]: 10.3 nM
- OD at 450 nm (recombinant CD40 protein): 0.11 OD
- Kd [4]: 15.7 nM
- EC50 [2]: 11.9 ng/mL

B6: CP-870,893 (antibody, V domains shown)
VH: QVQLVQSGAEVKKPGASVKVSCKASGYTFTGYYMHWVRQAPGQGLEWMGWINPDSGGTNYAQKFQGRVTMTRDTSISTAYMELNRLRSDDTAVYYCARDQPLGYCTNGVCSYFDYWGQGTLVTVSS
VL: DIQMTQSPSSVSASVGDRVTITCRASQGIYSWLAWYQQKPGKAPNLLIYTASTLQSGVPSRFSGSGSGTDFTLTISSLQPEDFATYYCQQANIFPLTFGGGTKVEIKR
- Kd [4]: 8.9 nM
- EC50 [2]: 8 ng/mL

B7: MAB-16-0484 (antibody, V domains shown)
VH: EVQLEESGGGLVQPGGSLRLSCAASGIDFSRYYYICWVRQAPGKGPEWVACFANGDGSTYYASWAKGRFTISKDTSKTTLYLQMNSLRAEDTATYFCARGADYSGGAAAFNLWGQGTLVTVSS
VL: DIQMTQSPSSLSASVGDRVTITCQASQSISSRLAWYQQKPGQAPKLLIYRASTLASGVPSRFSGSGSGTDFTLTISSLQPEDFATYYCQDYYGSSTEYNAFGQGTKVVIK
notes: humanized anti-CD40 IgG1-LALA antibody of the invention
- EC50 (cell-expressed CD40 [1]): 21.9 ng/mL
- OD at 450 nm (recombinant CD40 protein): 0.07 OD
- EC50 [2]: 31.8 ng/mL

B8: MAB-16-0267 (antibody, V domains shown)
VH: EVQLEESGGDLVQPGASLRLSCAASGFDFNSNAMSWVRQAPGKGLEWVASIYAGGSGSTYYASWAKGRFTISKDTSKTTLYLQMNSLRAEDTATYFCARGITRLPLWGQGTLVTVSS
VL: B7 VL with R32Y, R50D, T53K, D90G, Y91T, G93Y, S94G, E97T, Y98I, N99S
notes: as for B7
- EC50 (cell-expressed CD40 [1]): 3.4 ng/mL
- OD at 450 nm (recombinant CD40 protein): 0.1 OD
- EC50 [2]: 7 ng/mL

B10: CD40L containing a mouse-IgG2a Fc-tag (AB Biosciences) (Fc fusion, UniProt P29965 113-261, looked up)
chain: MQKGDQNPQIAAHVISEASSKTTSVLQWAEKGYYTMSNNLVTLENGKQLTVKRQGLYYIYAQVTFCSNREASSQAPFIASLCLKSPGRFERILLRAANTHSSAKPCGQQSIHLGGVFELQPGASVFVNVTDPSQVSHGTGFTSFGLLKL
notes: not shown: mouse IgG2a Fc tag
- EC50 (read off the curve) (cell-expressed CD40 [5]): ~200 ng/mL
- EC50 (read off the curve) (cell-expressed CD40 [6]): ~400 ng/mL

The remaining lines, values ahead:

- EC50 (cell-expressed CD40 [1]): 49.5 ng/mL
- OD at 450 nm (recombinant CD40 protein): 0.09 OD
- EC50 [2]: 8.2 ng/mL
B1: MAB-16-0346 (antibody, V domains shown)
VH: EVQLEESGGGLVQPGGSLRLSCAASGFDFSTNAVSWVRQAPGKGLEWVGSISAGSSGSTYYASWAKGRFTISKDTSKTTLYLQMNSLRAEDTATYFCARGYTYLTLWGQGTLVTVSS
VL: DIVMTQSPSSLSASVGDRVTITCQASHSISSTYLSWYQQKPGQAPKLLIYRASTLASGVPSRFSGSGSGTDFTLTISSLQPEDFATYYCQYTDYGSSYVSTFGQGTKVVIK
notes: as for B7

- EC50 (cell-expressed CD40 [1]): 3 ng/mL
- Kd [3]: 2.2 nM
- OD at 450 nm (recombinant CD40 protein): 0.09 OD
- Kd [4]: 2.6 nM
- EC50 [2]: 8 ng/mL
B2: MAB-16-0464 (antibody, V domains shown)
VH: B1 VH with T31S, V34M, S50T, S52Y, S56N, S58N, Y60D, Y101A, T102S, L104F
VL: DIVMTQSPSSLSASVGDRVTITCQASESVVSNNRLAWYQQKPGQAPKLLIYLASTLPSGVPSRFSGSGSGTDFTLTISSLQPEDFATYYCAGYKSSSTDGTAFGQGTKVVIK
notes: as for B4

- EC50 (cell-expressed CD40 [1]): 3.2 ng/mL
- OD at 450 nm (recombinant CD40 protein): 0.01 OD
B3: MAB-16-0489 (antibody, V domains shown)
VH: EVQLEESGGGLVQPGASLRLSCAASGIDFSRYFYVCWVRQAPGKGLEWVGCFANHDDSIYYAGWMNGRFTISKDTSKTTLYLQMNSLRAEDTATYFCARGVDYTVGYGGAAFNLWGQGTLVTVSS
VL: DIVMTQSPSSLSASVGDRVTITCQASQSIGSYLSWYQQKPGQAPKLLIYRATTLASGVPSRFSGSGSGTDFTLTISSLQPEDFATYYCQSYYRDSSSSAFGQGTKVVIK
notes: as for B7

- EC50 (cell-expressed CD40 [1]): 8.9 ng/mL
- Kd [3]: 0.8 nM
- OD at 450 nm (recombinant CD40 protein): 0.13 OD
- Kd [4]: 1.2 nM
- EC50 [2]: 10.4 ng/mL
B5: MAB-16-0451 (antibody, V domains shown)
VH: B4 VH with T31S, A33T, A52Y, I57G, I58S, T75I, V94T, A105S
VL: DIVMTQSPSSLSASVGDRVTITCQASQSISNYLAWYQQKPGQAPKLLIYDASKLASGVPSRFSGSGSGTDFTLTISSLQPEDFATYYCQGGDYYGSSYVVAFGGGTKVVIK
notes: as for B4

- EC50 (cell-expressed CD40 [1]): 6.6 ng/mL
- OD at 450 nm (recombinant CD40 protein): 0.07 OD
- EC50 [2]: 11.1 ng/mL
B9: MAB-16-0406 (antibody, V domains shown)
VH: B7 VH with I35M, F52Y, A53S, G105A
VL: B7 VL with Q27E, S30G, S31N, R32A, A34V, T53I, A100T
notes: as for B7

- EC50 (cell-expressed CD40 [1]): 5.8 ng/mL
- OD at 450 nm (recombinant CD40 protein): 0.08 OD
B11: MAB-16-0400 (antibody, V domains shown)
VH: EVQLEESGGGLVQPGGSLRLSCAASGIDFSRYFYMCWVRQAPGKGLEWVACIGPGVSGDTYYASWAKGRFTISGDTSKTTLYLQMNSLRAEDTATYFCARGVDYTYGDAGAAFNLWGQGTLVTVSS
VL: DIVMTQSPSSLSASVGDRVTITCQASQSISSYLAWYQQKPGQAPKLLIYRASILASGVPSRFSGSGSGTDFTLTISSLQPEDFATYYCQTYYSSRTYSYGSPNAFGQGTKVVIK
notes: as for B7
